This note sets out measurements from article PMC5382158 (Frontiers in Cellular and Infection Microbiology, 2017).

Assay in all cases: two-hybrid
In assay [1] the target is NarI-T18 (M. tuberculosis).
The target in a further assay is T1, Rv2617c-T18 (M. tuberculosis, UniProt I6XER9 1-146).
T1 sequence: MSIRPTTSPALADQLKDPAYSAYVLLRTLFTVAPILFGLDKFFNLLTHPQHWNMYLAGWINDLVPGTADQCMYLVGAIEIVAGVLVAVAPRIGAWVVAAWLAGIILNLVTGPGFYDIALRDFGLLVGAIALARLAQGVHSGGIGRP
The conditions noted are these: partners not purified.

For the next assay, the target named is T2, NarK2-T18 (M. tuberculosis, UniProt P9WJY7 1-395).
T2 sequence: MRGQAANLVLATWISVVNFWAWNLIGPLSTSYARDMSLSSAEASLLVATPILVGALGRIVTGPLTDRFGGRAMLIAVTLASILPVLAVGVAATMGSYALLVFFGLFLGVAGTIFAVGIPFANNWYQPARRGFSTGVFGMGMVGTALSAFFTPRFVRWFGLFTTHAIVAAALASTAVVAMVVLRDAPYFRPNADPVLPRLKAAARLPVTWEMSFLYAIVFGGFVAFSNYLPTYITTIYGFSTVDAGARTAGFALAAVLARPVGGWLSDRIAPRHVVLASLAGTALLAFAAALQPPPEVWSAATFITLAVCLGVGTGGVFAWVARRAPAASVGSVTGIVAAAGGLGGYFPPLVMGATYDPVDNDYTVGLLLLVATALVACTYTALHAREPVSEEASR
To be noted: partners not purified.

In assay [1], KdpF-T25 (peptide) had a β-galactosidase activity of 720 Miller units.
On to MTTVDNIVGLVIAVALMAFLFAALLFPEKF [KdpF-T25], for which the β-galactosidase activity was 1870 Miller units with Rv2617c-T18 and 868 Miller units in the assay with NarK2-T18.
